Results: the supplement of paper PMC10567573

B1: DFFB (parent)
chain: KLNCDPSRIYKPQTRLKRKQPVRK
B2: CPOX (parent)
chain: HAPTIHFNYRYFEVEEADGNKQWW

Variants of: B1
Test: protein stability index of a GFP-peptide fusion (GPS, HEK-293T) (PSI 1-6); higher = more stable
Conditions: c terminus: a fixed tail appended
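Further: lentivirally expressed fusions sorted by FACS into six bins by GFP to DsRed ratio, PSI derived from sequencing read proportions per bin multiplied by bin number.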

Protein stability index of substitutions, site by site:
Q20: Y 2.91 | E 3.04 | N 3.66 | T 4.39 | R 3.59 | I 3.69
T14: S 3.19 | H 3.77 | Y 3.49 | E 3.28 | L 3.91 | R 3.52 | N 3.58
N3: E 4.44 | S 4.17 | G 4.4 | C 3.73 | W 3.21 | Y 3.29 | V 3.96
S7: D 3.36 | H 3.21 | W 3.78 | R 2.98 | P 3.19 | A 3.28 | G 3.5
L16: I 3.67 | S 3.6 | K 3.07 | H 3.9 | C 2.95 | W 3 | Q 3.9 | D 2.92 | N 3.85 | R 3.48
K19: M 3.31 | D 3.53 | G 2.63 | H 3.49 | R 3.9 | A 3.66 | I 3.18 | L 3.14 | Q 3.34
P6: W 3.08 | H 3.39 | Q 3.62 | Y 3.5 | F 2.92 | A 3.45 | G 3.44
I9: Y 3.32 | A 3.57 | W 2.82 | T 3.31 | E 3.93 | C 4.01 | N 4.01 | H 3.31 | M 3.3 | F 3.83
R18: H 3.13 | E 4.21 | K 3.76 | Q 3.4 | I 3.32 | W 3.03 | G 3.28 | L 3.62
P12: I 2.85 | F 3.38 | Q 2.24 | G 3.3 | N 4.49 | H 3.13 | C 3.21 | T 3.69
K11: Q 2.07 | W 3.3 | R 3.53 | G 3.17 | V 3.95 | P 3.15 | A 4.01 | Y 3.94 | H 2.94 | C 3.9 | I 3.16
P21: F 3.37 | E 3.28 | W 3.45 | T 3.86 | C 3.36
Y10: P 3.72 | H 3.86 | A 2.92 | R 3.56 | Q 2.75 | F 2.58 | N 3.57 | I 3.6
L2: N 4.5 | G 4.94 | E 4.52 | H 2.95
V22: R 2.03 | P 3.87 | G 4.39 | F 3.48 | D 3.67 | L 3.62 | I 3.78 | C 3.41
Q13: L 3.09 | C 3.56 | G 3.56 | A 4.01 | P 3.76 | M 3.51 | N 3 | Y 3.46 | R 3.08 | H 4.35 | D 3.83
R15: E 3.68 | P 3.6 | G 3.58 | K 3.24 | Q 2.67 | S 3.96
R8: A 3.84 | F 3.55 | G 3.83 | T 2.81 | K 4 | W 3.29 | H 3.61 | E 4.21 | I 2.93 | S 3.2
D5: G 3.35 | F 3.08 | P 3.25 | V 2.98 | Y 3.75 | S 3.35 | W 2.71 | E 2.9
K17: I 3.21 | A 2.98 | W 3.19 | Y 3.68 | G 4.14
C4: H 3.5 | T 3.62 | K 3.58 | E 3.65 | M 2.35
K1: W 3.65 | H 1.93 | T 3.87 | R 4.11 | P 3.54 | Y 3.24 | I 2.06
K24: I 3.03 | E 3.99 | M 3.11
R23: V 3.25 | D 3.83 | M 3.1 | E 3.34 | T 3.77 | A 3.39 | G 3.35 | I 3.53 | K 3.01 | Y 3.48 | L 2.81

Variants of: B2
Test: as above
Conditions: c terminus: a fixed tail appended

Protein stability index, by site and new letter:
T4: K 2.26 | A 2.38 | H 2.62 | S 2.8 | W 2.15 | M 1.97 | I 2.21 | G 2.57 | Q 2.66 | R 1.8 | F 2.12 | V 2.45 | N 2.63 | D 2.96 | L 2.31 | P 2.7 | C 2.01 | E 2.29 | Y 1.39
P3: M 1.97 | I 2.92 | G 2.85 | K 1.93 | A 1.97 | H 2.2 | W 1.17 | T 2.38 | R 2.69 | V 1.8 | N 2.09 | S 1.99 | L 2.49 | F 2.6 | Q 1.65 | D 2.67 | C 1.62 | Y 2.39 | E 1.99
H6: L 1.82 | I 2.34 | E 2.66 | N 2.5 | G 2.77 | Q 2.52 | Y 2.68 | S 2.31 | K 2.36 | T 2.42 | P 1.89 | W 1.59 | F 1.52 | C 1.9 | D 2.92 | A 2.19 | M 1.94 | V 1.61 | R 2.04
H1: W 2.62 | N 2.54 | A 2.46 | V 2.69 | K 2.37 | C 2.15 | I 2.05 | R 3.24 | G 3.62 | L 1.92 | D 1.84 | E 2.42 | Q 2.96 | P 2.62 | S 2.89 | T 2.91 | M 2.15
A2: D 2.94 | T 2.5 | W 2.02 | K 2.38 | F 2.26 | H 2.44 | P 2.34 | E 3.45 | C 1.99 | N 2.46 | I 1.73 | V 2.85 | M 2.16 | Y 2.33 | Q 3.31 | G 2.43 | L 2.11 | S 2.78 | R 2.73
N8: F 1.79 | P 2.69 | R 2.83 | W 1.52 | Y 2.02 | K 1.67 | I 1.26 | D 2.75 | S 3.03 | Q 2.48 | M 2.53 | G 2.36 | E 2.1 | V 1.57 | T 1.87 | A 2.22
F7: Y 2.48 | E 3.06 | H 3.35 | M 2.26 | G 3.52 | T 3.15 | Q 3.21 | S 3.02 | R 2.83 | K 3.03 | C 2.35 | D 2.89 | A 3.4 | W 2.96 | V 2.58 | I 3.05 | N 2.71 | L 2.86 | P 2.8
I5: P 2.78 | V 2.43 | R 2.64 | L 2.14 | D 3.41 | S 2.65 | Q 2.7 | F 2.44 | T 2.78 | Y 1.97 | W 2.47 | K 2.29 | G 2.25 | H 2.82 | E 3.55 | N 2.9 | C 2.4 | A 2.69 | M 3.15
Y9: D 3.46 | F 2.05 | C 1.29 | E 3.5 | H 2.9 | A 2.33
